Source: patent US20070036810A1, “Cyclic amp response element activator proteins and uses related thereto” (priority 2003, published 2007)

B1: CREAP3: human CREAP family protein of 619 amino acids, SEQ ID NO 25; reconstructed full-length FLJ00364 cDNA (protein)
chain: MAASPGSGSANPRKFSEKIALHTQRQAEETRAFEQLMTDLTLSRVQFQKLQQLRLTQYHGGSLPNVSQLRSNASEFQPSFHQADNVRGTRHHGLVERPSRNRFHPLHRRSGDKPGRQFDGSAFGANYSSQPLDESWPRQQPPWKDEKHPGFRLTSALNRTNSDSALHTSALSTKPQDPYGGGGQSAWPAPYMGFCDGENNGHGEVASFPGPLKEENLLNVPKPLPKQLWETKEIQSLSGRPRSCDVGGGNAFPHNGQNLGLSPFLGTLNTGGSLPDLTNLHYSTPLPASLDTTDHHFGSMSVGNSVNNIPAAMTHLGIRSSSGLQSSRSNPSIQATLNKTVLSSSLNNHPQTSVPNASALHPSLRLFSLSNPSLSTTNLSGPSRRRQPPVSPLTLSPGPEAHQGFSRQLSSTSPLAPYPTSQMVSSDRSQLSFLPTEAQAQVSPPPPYPAPQELTQPLLQQPRAPEAPAQQPQAASSLPQSDFQLLPAQGSSLTNFFPDVGFDQQSMRPGPAFPQQVPLVQQGSRELQDSFHLRPSPYSNCGSLPNTILPEDSSTSLFKDLNSALAGLPEVSLNVDTPFPLEEELQIEPLSLDGLNMLSDSSMGLLDPSVEETFRADRL
modifications: human
notes: reconstructed full-length FLJ00364 cDNA
B2: TRAF6: full length TRAF6 cDNA expression construct; TNF receptor-associated factor 6 (protein, UniProt Q9Y4K3 1-522, looked up)
chain: MSLLNCENSCGSSQSESDCCVAMASSCSAVTKDDSVGGTASTGNLSSSFMEEIQGYDVEFDPPLESKYECPICLMALREAVQTPCGHRFCKACIIKSIRDAGHKCPVDNEILLENQLFPDNFAKREILSLMVKCPNEGCLHKMELRHLEDHQAHCEFALMDCPQCQRPFQKFHINIHILKDCPRRQVSCDNCAASMAFEDKEIHDQNCPLANVICEYCNTILIREQMPNHYDLDCPTAPIPCTFSTFGCHEKMQRNHLARHLQENTQSHMRMLAQAVHSLSVIPDSGYISEVRNFQETIHQLEGRLVRQDHQIRELTAKMETQSMYVSELKRTIRTLEDKVAEIEAQQCNGIYIWKIGNFGMHLKCQEEEKPVVIHSPGFYTGKPGYKLCMRLHLQLPTAQRCANYISLFVHTMQGEYDSHLPWPFQGTIRLTILDQSEAPVRQNHEEIMDAKPELLAFQRPTIPRNPKGFGYVTFMHLEALRQRTFIKDDTLLVRCEVSTRFDMGSLRREGFQPRSTDAGV
modifications: full-length
B3: CREAP2: human CREAP family protein of 693 amino acids, SEQ ID NO 16 (protein)
chain: MATSGANGPGSATASASNPRKFSEKIALQKQRQAEETAAFEEVMMDIGSTRLQAQKLRLAYTRSSHYGGSLPNVNQIGSGLAEFQSPLHSPLDSSRSTRHHGLVERVQRDPRRMVSPLRRYTRHIDSSPYSPAYLSPPPESSWRRTMAWGNFPAEKGQLFRLPSALNRTSSDSALHTSVMNPSPQDTYPGPTPPSILPSRRGGILDGEMDPKVPAIEENLLDDKHLLKPWDAKKLSSSSSRPRSCEVPGINIFPSPDQPANVPVLPPAMNTGGSLPDLTNLHFPPPLPTPLDPEETAYPSLSGGNSTSNLTHTMTHLGISRGHGPGPGYDAPGLHSPLSHPSLQSSLSNPNLQASLSSPQPQLQGSHSHPSLPASSLACHVLPTTSLGHPSLSAPALSSSSSSSSTSSPVLGAPSYPASTPGASPHHRRVPLSPLSLLAGPADARRSQQQLPKQFSPTMSPTLSSITQGVPLDTSKLSTDQRLPPYPYSSPSLVLPTQPHTPKSLQQPGLPSQSCSVQSSGGQPPGRQSHYGTPYPPGPSGHGQQSYHRPMSDFNLGNLEQFSMESPSASLVLDPPGFSEGPGFLGGEGPMGGPQDPHTFNHQNLTHCSRHGSGPNIILTGDSSPGFSKEIAAALAGVPGFEVSAAGLELGLGLEDELRMEPLGLEGLNMLSDPCALLPDPAVEESFRSDRLQ
modifications: human

What was measured:
[1] = system: minimal promoter linked to multiple copies of CRE; assay: CRE-Luc reporter co-transfection assay with the CREAP gene family; type: cell-based; conditions: for CRE: level of expression of luciferase relative to empty vector: cotransfection, relative to empty pCMV-SPORT6 vector
Excerpt: (§1) The entire amino acid sequence for CREAP1 was used in a BLASTP search of a public NCBI database. Initially two public domain cDNAs (XM—117201 and FLJ00364) were identified that have significant homology to the CREAP1 coding region. The nucleotide sequence of XM—117201 was used in a BLASTN search (Altschul S. F. et al., Nucleic Acids Res. 25:3389-3402 (1997)) of a proprietary cDNA library EST database and 4 clones were identified that represent XM—117201 public sequence. All 4 clones were functionally tested upon co-transfection with the CRE-Luc and IL-8p-Luc reporters initially found to be induced by CREAP using methods similar to those disclosed above. Briefly, trypsinized HeLa cells are resuspended in complete growth media at 6×10^4 cells/ml and distributed into white 96-well plates (Costar) in the volume of 100 μl per well. Cells are left overnight in a tissue culture incubator at 37° C. and 5% CO2. pGL3B-IL-8p-Luc reporter plasmid or CRE-Luc reporter (BD Biosciences) as well as tested cDNAs are resuspended in OptiMEM I low serum media (GIBCO BRL) at 25 ng/ml. The reporter plasmids and cDNAs are then distributed into 96-well clean PCR plates (ABGene) at 4 μl/well and 3 μl/well respectively. Mixture containing Fugene 6 reagent (Roche Applied Bioscience) at 1.5 μl per transfection and pRL-SV40 (Promega) plasmid 20 ng per transfection is added in the volume of 10 μl per well of the 96-well PCR plate containing prediluted cDNAs. […]
(§2) The activity of firefly and Renilla luciferase is measured using the DualGlo Luciferase Assay System (Promega) following the protocol supplied by the manufacturer. Briefly, 115 μl of freshly reconstituted luciferase reagent is added to each well of the 96-well tissue culture plates with a Multidrop 384 and, after 15 minutes incubation, luminescence is read on a LUMINOSKAN Ascent Luminometer (Thermo Labsystems) with a 400 msec integration time. Subsequently, 115 μl of Stop-and-Glo reagent is added to each well of the 96-well tissue culture and, after 15 minutes incubation, luminescence is read on a LUMINOSKAN Ascent Luminometer with a 200 msec integration time. The activity of each tested cDNA is measured as a ratio of the corresponding firefly and Renilla luciferase activities.
To investigate this, the ability of CREAP2 and CREAP3 to activate gene expression driven by the IL-8 promoter and a CRE-dependent promoter was tested in co-transfection assays as disclosed above. Briefly, the levels of expression of a luciferase reporter driven by either the IL-8 promoter or a minimal promoter linked to 4 copies of CRE were determined after cotransfection with either an empty pCMV-SPORT6 expression vector or with the same vector carrying a cDNA for CREAP1, CREAP2 or CREAP3. […]

[2] = system: Interleukin-8 promoter; assay: IL-8 promoter luciferase reporter co-transfection assay with the CREAP gene family; type: cell-based, human; conditions: cotransfection, relative to empty pCMV-SPORT6 vector
Excerpt: as §1, with “respectively.” for “respectively. Mixture containing Fugene 6 reagent (Roche Applied Bioscience) at 1.5 μl per transfection and pRL-SV40 (Promega) plasmid 20 ng per transfection is added in the volume of 10 μl per well of the 96-well PCR plate containing prediluted cDNAs.”
as §2, with “activities. […]” for “activities.”

[3] = system: GAL4 DNA binding sites (UAS-Luc, pFR-Luc reporter); assay: GAL4 DNA binding domain fusion transactivation assay (pFR-Luc) in HEK 293 cells; type: cell-based; conditions: normalized to pCMV-BD vector
Excerpt: To determine if CREAP proteins can act as a transcription activators, various regions of all 3 CREAP homologs (amino acids 300-650 of CREAP1, amino acids 296-694 of CREAP2 and amino acids 335-635 of CREAP3) were expressed as fusion proteins with the DNA binding domain of GAL4 and tested for the ability to activate expression of a reporter gene linked to GAL4 protein binding sequences (UAS-Luc (pFR-Luc reporter). Briefly, the indicated regions of CREAP1, CREAP2 and CREAP3 were amplified by PCR and subcloned in frame into pCMV-BD vector (Stratagene) encoding GAL4 DNA binding domain. Selected plasmids and empty vector (pCMV-SPORT6) were transfected into HEK 293 cells at 75 ng/well using Fugene6 transfection reagent (Roche) as described above. pFR-Luc reporter (Stratagene) encoding firefly luciferase gene driven by minimal promoter linked to 5 concatamerized GAL4 binding sites (UAS) was co-transfected at 100 ng/well. As a positive control, the reporter was also co-transfected with a plasmid encoding GAL4-CREB fusion protein (Stratagene) alone or in the presence of pFC-PKA an expression construct encoding catalytic subunit of protein kinase A (Stratagene) to activate the CREB kinase inducible activation domain. Fold induction was compared to the reporter's activity measured in the cells transfected with pCMV-BD an expression vector carrying GAL4 DNA binding domain only.
Expression constructs encoding full length CREAP1, CREAP2 and CREAP3 as well as a Gal4 DNA binding domain alone or fused with C-terminal portions of CREAP1, CREAP2 and CREAP3 were tested for the ability to induce expression of a luciferase gene controled by a minimal promoter linked to GAL4 DNA binding sites (pFRLuciferase). The data shown are normalized to the value seen with pCMV-BD vector co-transfected with pFR-Luc reporter.

[4] = system: GAL4-CREB fusion protein; assay: GAL4-CREB activation assay in HLR cell line; type: cell-based; conditions: HLR cell line with integrated pFR-Luc reporter, normalized to pCMV-BD vector
Description: To determine if CREAP proteins can directly activate CREB1 protein, the expression constructs of CREAP1, CREAP2 and CREAP3 were transfected individually or with GAL4-CREB plasmid (Stratagene) into HLR cell line (Stratagene) carrying genomic DNA integrated copies of pFR-Luc reporter. Briefly, HLR cells were maintained per manufacturer's instructions. Selected plasmids and either empty vector (pCMV-BD) or GAL4-CREB plasmid were transfected at 75 ng/well using Fugene6 transfection reagent (Roche) as described above. As a positive control pFC-PKA an expression construct encoding catalytic subunit of protein kinase A (Stratagene) was also co-trasfected with GAL4-CREB. Fold of activation was compared to the reporter's activity measured in the cells transfected with empty vector.
The ability of full length CREAP1, CREAP2 and CREAP3 to induce the activity of GAL4-CREB fusion protein (Stratagene) was tested. The data presented are normalized to the value seen with pCMV-BD vector. […] Note the fold induction obtained with positive control is lower when compared to the data from Table 6 when all the plasmids including the reporter were transiently transfected.

[5] = system: human IL-8 promoter; assay: pGL2-IL-8p-Luc reporter inducibility in HEK 293 cells; type: cell-based; conditions: expression construct co-transfected into HEK 293 cells, 48 hours post transfection
Description: A luciferase reporter controlled by a 1.5 kB IL-8 promoter containing fragment of human IL-8 promoter was tested for inducibility by known regulators of cytokine-mediated gene expression. pNF-κB-Luc (BD Biosciences) and pGL2-IL-8p-Luc reporters were co-transfected into HEK 293 cells with expression constructs encoding known activators of the NF-κB pathway, truncated MEKK (AA 360-672) (Stratagene) and a full length TRAF6 cDNA made according to conventional methods using a proprietary clone collection. Cells co-transfected with empty pCMV-Sport6 vector were either left untreated or treated with TNFα (50 ng/ml, for 16 hours). Luciferase activity was measured 48 hours post transfection. The pNF-κB-Luc reporter was used as a positive control.

| Molecule | higher level of induction of gene expression compared to CREAP1 and CREAP2 ([1]; CRE and IL-8 promoter reporters) | CRE: level of expression of luciferase relative to empty vector [1] | IL-8: level of expression of luciferase relative to empty vector [2] | Fold Induction [3] | Fold Induction [4] | increase of IL-8 promoter-reporter activity [5] |
| --- | --- | --- | --- | --- | --- | --- |
| B1 | 2-4 fold | 71.4 | 574.5714 | 1.58 | 2.458 |  |
| B2 |  |  |  |  |  | 4.9 times |
| B3 |  | 38.6 | 126.8571 | 2.47 | 2.435 |  |
